Laboratory results reported in paper PMC3386944.

Target: HER3 receptor (human (endogenous in AU565)) (UniProt P21860)
Sequence of UniProt P21860 (P21860 20-1342): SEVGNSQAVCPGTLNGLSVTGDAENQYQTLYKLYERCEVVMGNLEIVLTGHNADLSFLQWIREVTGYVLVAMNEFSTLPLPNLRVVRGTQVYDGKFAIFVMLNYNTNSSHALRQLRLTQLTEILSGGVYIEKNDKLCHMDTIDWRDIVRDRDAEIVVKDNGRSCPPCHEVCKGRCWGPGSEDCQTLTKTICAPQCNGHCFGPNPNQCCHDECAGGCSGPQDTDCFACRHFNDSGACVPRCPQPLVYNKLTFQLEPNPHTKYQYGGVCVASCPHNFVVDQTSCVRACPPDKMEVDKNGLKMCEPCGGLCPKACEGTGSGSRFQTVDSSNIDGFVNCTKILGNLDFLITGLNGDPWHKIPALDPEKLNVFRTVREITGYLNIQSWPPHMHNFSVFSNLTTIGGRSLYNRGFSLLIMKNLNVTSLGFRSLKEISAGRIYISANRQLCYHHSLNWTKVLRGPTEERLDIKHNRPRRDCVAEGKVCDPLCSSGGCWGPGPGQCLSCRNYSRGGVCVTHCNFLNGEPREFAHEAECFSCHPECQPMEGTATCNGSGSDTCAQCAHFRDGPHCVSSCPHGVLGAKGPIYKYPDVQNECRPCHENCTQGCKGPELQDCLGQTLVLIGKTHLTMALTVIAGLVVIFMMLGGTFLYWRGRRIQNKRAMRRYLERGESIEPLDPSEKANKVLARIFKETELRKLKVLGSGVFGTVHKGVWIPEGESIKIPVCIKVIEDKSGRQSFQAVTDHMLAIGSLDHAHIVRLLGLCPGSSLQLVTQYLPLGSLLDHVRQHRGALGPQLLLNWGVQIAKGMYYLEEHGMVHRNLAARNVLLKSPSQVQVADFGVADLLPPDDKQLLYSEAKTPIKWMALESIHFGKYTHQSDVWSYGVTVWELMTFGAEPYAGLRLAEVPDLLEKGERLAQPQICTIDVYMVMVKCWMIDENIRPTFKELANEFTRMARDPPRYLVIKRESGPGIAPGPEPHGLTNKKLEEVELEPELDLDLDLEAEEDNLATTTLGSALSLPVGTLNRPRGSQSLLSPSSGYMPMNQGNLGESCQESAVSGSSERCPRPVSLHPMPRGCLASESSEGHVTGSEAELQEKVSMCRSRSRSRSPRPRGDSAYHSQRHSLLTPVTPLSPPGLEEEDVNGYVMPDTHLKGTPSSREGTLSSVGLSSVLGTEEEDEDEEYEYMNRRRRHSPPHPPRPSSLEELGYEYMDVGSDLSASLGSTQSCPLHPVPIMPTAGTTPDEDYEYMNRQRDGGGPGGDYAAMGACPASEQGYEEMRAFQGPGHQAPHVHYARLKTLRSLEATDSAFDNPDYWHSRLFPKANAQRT

Substance “heregulin (HRG, NRG1-β1/HRG1-β1 ECD domain), biotinylated (ligand)” has an IC50 of Affibody molecule Z05416 (no letters) for inhibition of growth of MCF-7 cells induced by 40 pM HRG (EGF domain construct), 5 days, CCK-8 of 19 nM, an IC50 of Affibody molecule Z05416 (no letters) for inhibition of growth of SKBR-3 cells induced by 40 pM HRG (EGF domain construct), 5 days, CCK-8 of 73 nM and an IC50 of Affibody molecule Z05417 (no letters) for inhibition of growth of MCF-7 cells induced by 40 pM HRG (EGF domain construct), 5 days, CCK-8 of 15 nM. The IC50 of Affibody molecule Z05417 (no letters) for inhibition of growth of SKBR-3 cells induced by 40 pM HRG (EGF domain construct), 5 days, CCK-8 was 65 nM.
